# Laboratory results published in PMC9713302, “Simultaneous solving high-resolution structures of various enzymes from human kidney microsomes” (Life Science Alliance, 2022).
# B1: betaine-homocysteine methyltransferase (BHMT) (enzyme, human (endogenous in kidney microsomes), UniProt Q93088 1-406, looked up)
# chain: MPPVGGKKAKKGILERLNAGEIVIGDGGFVFALEKRGYVKAGPWTPEAAVEHPEAVRQLHREFLRAGSNVMQTFTFYASEDKLENRGNYVLEKISGQEVNEAACDIARQVADEGDALVAGGVSQTPSYLSCKSETEVKKVFLQQLEVFMKKNVDFLIAEYFEHVEEAVWAVETLIASGKPVAATMCIGPEGDLHGVPPGECAVRLVKAGASIIGVNCHFDPTISLKTVKLMKEGLEAARLKAHLMSQPLAYHTPDCNKQGFIDLPEFPFGLEPRVATRWDIQKYAREAYNLGVRYIGGCCGFEPYHIRAIAEELAPERGFLPPASEKHGSWGSGLDMHTKPWVRARARKEYWENLRIASGRPYNPSMSKPDGWGVTKGTAELMQQKEATTEQQLKELFEKQKFKSQ
# notes: human BHMT, endogenous in kidney microsomes; Zn2+-free and ligand-free in the structure; also called betaine-homocysteine S-methyltransferase; source: endogenous, human kidney microsomes (bought: SEKISUI XenoTech), lysate enriched by size exclusion chromatography
# Molecular target: the molecule itself
# Assay: cryo-EM structure; single-particle cryo-EM with Build and Retrieve (BaR) on the 100-200 kD SEC peak of raw human kidney microsome lysate; 20 mM Tris-HCl pH 7.5, 100 mM NaCl; 0.6 mg/ml
protein,measurement,value
B1,stoichiometry N,4
